Tested on: spDnmt2 (Schizosaccharomyces pombe)
Experiment: fluorescence polarization
Settings: binding buffer, salt, pH and temperature not given in the material (methods section text missing)

G34 tRNAAsp (unmodified) was tested. Which Kd did it give?
The Kd was 960 nM.

For Q34 tRNAAsp, which Kd (queuosine at position 34 (queuine enzymatically incorporated by human TGT)) is on record?
Its Kd is 670 nM.

From PMC5995894
